Reference: publication PMC5072174

target: fluorescein-conjugated N-terminal histone H3 peptide with trimethylation at the K9 position (UniProt P68431); assay: fluorescence polarisation

Row | Substance | Kd [µM]
1 | Mpp8 chromodomain with F59 replaced by 3,5-difluorophenylalanine (from UniProt Q99549 55-116) (domain or fragment) | 12
2 | Mpp8 chromodomain with F59 replaced by pentafluoro-phenylalanine (from UniProt Q99549 55-116) (domain or fragment) | > 200
3 | Mpp8 chromodomain with F59 replaced by 3,4,5-trifluorophenylalanine (from UniProt Q99549 55-116) (domain or fragment) | > 100
